Values quoted from earlier work, collected in article PMC4676407.

Target: Akt kinase domain kinase domain (Homo sapiens) (UniProt P31749)

Which Kd does the source give for “Akt C-terminal peptide C-terminus (from UniProt P31749)” here?
Its Kd is over 5 mM.
